Test results from publication PMC3352945.

Legend:
[1] = target: cpTatC (pea (endogenous in pea thylakoids)); experiment: pull-down
imported cpTatC = experiment: radioligand binding

tOE17-GS3-His, sequence (Q41048 whole entry): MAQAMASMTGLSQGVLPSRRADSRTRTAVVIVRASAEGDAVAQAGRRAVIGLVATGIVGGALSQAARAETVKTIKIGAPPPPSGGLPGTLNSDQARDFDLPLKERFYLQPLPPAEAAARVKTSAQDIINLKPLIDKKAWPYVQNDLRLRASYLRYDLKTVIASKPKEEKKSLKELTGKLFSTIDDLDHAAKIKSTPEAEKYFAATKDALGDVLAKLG
tOE17 V-20F precursor protein, sequence (Q41048 whole entry): as above

Substance “tOE17-GS3-His (from UniProt Q41048 1-217) (natural protein)” has a stoichiometry N (tOE17-GS3-His per cpTatC) [1] of 1.05.
With “tOE17 V-20F precursor protein (from UniProt Q41048 1-217) (natural protein)” the stoichiometry N (tOE17 per imported cpTatC) (imported cpTatC) was 0.92.
